From PMC4038462, “PAX6 Regulates Melanogenesis in the Retinal Pigmented Epithelium through Feed-Forward Regulatory Interactions with MITF” (PLoS Genetics, 2014)

Target: T1, 3xFLAG-MITF (UniProt Q08874 1-526)
T1 sequence (looked up): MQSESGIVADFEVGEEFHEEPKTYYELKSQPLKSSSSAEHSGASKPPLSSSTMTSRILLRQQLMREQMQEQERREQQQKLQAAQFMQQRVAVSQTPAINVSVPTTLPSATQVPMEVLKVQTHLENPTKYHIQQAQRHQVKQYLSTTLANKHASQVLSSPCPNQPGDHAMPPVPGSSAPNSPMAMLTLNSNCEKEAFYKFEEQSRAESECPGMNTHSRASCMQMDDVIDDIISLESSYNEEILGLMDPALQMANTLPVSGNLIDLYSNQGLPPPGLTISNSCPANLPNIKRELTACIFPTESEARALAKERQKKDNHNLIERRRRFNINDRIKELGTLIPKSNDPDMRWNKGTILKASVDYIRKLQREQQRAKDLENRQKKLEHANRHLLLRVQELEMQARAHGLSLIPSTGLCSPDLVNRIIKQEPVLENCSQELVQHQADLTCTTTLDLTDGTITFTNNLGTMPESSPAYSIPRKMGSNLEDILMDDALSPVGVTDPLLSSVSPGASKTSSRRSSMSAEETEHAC
Assay: cell-based or functional assay

B1: 3xFLAG-PAX6 (natural protein)
chain: not shown
  luciferase reporter under the hTyr promoter in HeLa cells, fold change with MITF + PAX6 (MITF alone 12.6 fold): 71.3 fold change
  luciferase reporter under the mTyrp1 promoter in HeLa cells, fold change with MITF + PAX6 (MITF alone 5.6 fold; PAX6 alone no activation): 51.9 fold change
  luciferase reporter with four consecutive M-box elements in HeLa cells, fold activity with PAX6 and MITF together (MITF alone 6.6 fold; PAX6 alone none): 11.9 fold
